Laboratory results taken from patent US20240261333A1 (published 2024).

What was measured:
Test in all cases: co-IP with anti-FLAG, N-FLAG B3GNT2, mass spectrometry
SYNM = target: T1, SYNM (human, UniProt O15061 1-1565)
T1 construct: also called NP_663780.2
Description: (§1) Cells were plated in 10-cm cell culture dishes and grown to 60-80% confluency. For each condition, two biological replicates were harvested for co-IP. Cells were washed with PBS and 4 mL of lysis buffer (20 mM HEPES, 1% Triton X-100, 150 mM NaCl, 1 mM EDTA, and 10% glycerol) containing protease inhibitor cocktail was added. Cells were scraped and lysate was incubated at 4° C. under rotary agitation for 1 h. Lysate was centrifuged at 14,000×g for 10 min at 4° C. Supernatant was transferred to a new tube and an aliquot was taken as the input. […] For Western blots, 10 μg/mL Chicken Anti-FLAG (Aves labs ET-DY100) and IgY control (R&D Systems AB-101-C) antibodies were biotinylated (Thermo Fisher Scientific 90407) and added to the respective conditions. Lysates with antibodies were incubated at 4° C. under rotary agitation overnight. For each mL of lysate, 50 μL of Pierce Protein A/G Magnetic Beads (Mass spectrometry; Thermo Fisher Scientific 88803) or Pierce Streptavidin Magnetic Beads (Western blot; Thermo Fisher Scientific 88817) was washed twice with lysis buffer. Lysates with antibodies were added to the beads and incubated at 4° C. under rotary agitation for 4 h. Beads were washed with lysis buffer 3 times and resuspended in lysis buffer for storage.
(§2) Magnetic beads were resuspended in 100 mM Tris pH 7.8, reduced, alkylated and digested with trypsin at 37° ° C. overnight. This solution was subjected to solid phase extraction to concentrate the peptides and remove unwanted reagents followed by injection onto a Shimadzu HPLC with fraction collector. Eight fractions were collected and after concentration were injected on a Waters NanoAcquity HPLC equipped with a self-packed Aeris 3 μm C18 analytical column 0.075 mm by 20 cm, (Phenomenex). Peptides were eluted using standard reverse-phase gradients. The effluent from the column was analyzed using a Thermo Orbitrap Elite mass spectrometer (nanospray configuration) operated in a data dependent manner for 54 minutes. The resulting fragmentation spectra were correlated against the known database using Proteome Discover 1.4 (Thermo Fisher Scientific).

SYNCRIP = target: T2, SYNCRIP (human, UniProt O60506-3 2-562, limits assumed)
T2 construct: also called NP_001153148.1 (+1)
T2 sequence (looked up): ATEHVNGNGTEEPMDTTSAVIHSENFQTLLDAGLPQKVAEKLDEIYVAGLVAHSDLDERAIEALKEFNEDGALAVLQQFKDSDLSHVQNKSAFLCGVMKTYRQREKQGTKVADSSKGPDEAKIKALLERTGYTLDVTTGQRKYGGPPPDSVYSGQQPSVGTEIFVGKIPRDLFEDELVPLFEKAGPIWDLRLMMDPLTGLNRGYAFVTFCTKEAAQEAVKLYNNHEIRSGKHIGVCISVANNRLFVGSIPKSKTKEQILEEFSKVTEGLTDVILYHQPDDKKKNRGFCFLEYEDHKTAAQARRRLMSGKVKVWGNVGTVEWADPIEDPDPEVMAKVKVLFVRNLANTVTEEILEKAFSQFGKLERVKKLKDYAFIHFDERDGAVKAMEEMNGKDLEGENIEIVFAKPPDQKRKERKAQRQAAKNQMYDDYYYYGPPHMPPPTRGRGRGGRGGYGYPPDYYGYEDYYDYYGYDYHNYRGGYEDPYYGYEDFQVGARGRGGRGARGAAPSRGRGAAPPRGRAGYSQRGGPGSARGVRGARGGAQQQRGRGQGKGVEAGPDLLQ
Description: as §1, §2

ARPC1B = target: T3, ARPC1B (human, UniProt O15143 2-372)
T3 construct: also called NP_005711.1
Description: as §1, §2

SBSN = target: T4, SBSN (human, UniProt Q6UWP8 26-590)
T4 construct: also called NP_00159506.1 (+2)
T4 sequence (looked up): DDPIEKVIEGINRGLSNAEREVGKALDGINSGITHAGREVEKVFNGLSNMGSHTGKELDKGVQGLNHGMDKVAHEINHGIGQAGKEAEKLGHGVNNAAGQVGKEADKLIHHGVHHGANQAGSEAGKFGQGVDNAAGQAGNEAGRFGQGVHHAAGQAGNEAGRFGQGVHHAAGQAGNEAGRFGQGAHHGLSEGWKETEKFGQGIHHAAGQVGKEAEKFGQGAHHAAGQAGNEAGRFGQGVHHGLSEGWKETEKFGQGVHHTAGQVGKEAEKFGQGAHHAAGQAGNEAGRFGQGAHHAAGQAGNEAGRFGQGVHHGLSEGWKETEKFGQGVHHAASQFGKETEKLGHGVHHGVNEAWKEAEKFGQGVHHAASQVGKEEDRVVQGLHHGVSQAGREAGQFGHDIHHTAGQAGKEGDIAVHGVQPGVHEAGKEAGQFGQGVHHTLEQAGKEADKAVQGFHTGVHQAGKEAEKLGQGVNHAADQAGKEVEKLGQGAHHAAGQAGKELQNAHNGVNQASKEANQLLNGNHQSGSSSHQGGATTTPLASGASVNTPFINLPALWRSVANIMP
Description: as §1, §2

T1 sequence (O15061 whole entry): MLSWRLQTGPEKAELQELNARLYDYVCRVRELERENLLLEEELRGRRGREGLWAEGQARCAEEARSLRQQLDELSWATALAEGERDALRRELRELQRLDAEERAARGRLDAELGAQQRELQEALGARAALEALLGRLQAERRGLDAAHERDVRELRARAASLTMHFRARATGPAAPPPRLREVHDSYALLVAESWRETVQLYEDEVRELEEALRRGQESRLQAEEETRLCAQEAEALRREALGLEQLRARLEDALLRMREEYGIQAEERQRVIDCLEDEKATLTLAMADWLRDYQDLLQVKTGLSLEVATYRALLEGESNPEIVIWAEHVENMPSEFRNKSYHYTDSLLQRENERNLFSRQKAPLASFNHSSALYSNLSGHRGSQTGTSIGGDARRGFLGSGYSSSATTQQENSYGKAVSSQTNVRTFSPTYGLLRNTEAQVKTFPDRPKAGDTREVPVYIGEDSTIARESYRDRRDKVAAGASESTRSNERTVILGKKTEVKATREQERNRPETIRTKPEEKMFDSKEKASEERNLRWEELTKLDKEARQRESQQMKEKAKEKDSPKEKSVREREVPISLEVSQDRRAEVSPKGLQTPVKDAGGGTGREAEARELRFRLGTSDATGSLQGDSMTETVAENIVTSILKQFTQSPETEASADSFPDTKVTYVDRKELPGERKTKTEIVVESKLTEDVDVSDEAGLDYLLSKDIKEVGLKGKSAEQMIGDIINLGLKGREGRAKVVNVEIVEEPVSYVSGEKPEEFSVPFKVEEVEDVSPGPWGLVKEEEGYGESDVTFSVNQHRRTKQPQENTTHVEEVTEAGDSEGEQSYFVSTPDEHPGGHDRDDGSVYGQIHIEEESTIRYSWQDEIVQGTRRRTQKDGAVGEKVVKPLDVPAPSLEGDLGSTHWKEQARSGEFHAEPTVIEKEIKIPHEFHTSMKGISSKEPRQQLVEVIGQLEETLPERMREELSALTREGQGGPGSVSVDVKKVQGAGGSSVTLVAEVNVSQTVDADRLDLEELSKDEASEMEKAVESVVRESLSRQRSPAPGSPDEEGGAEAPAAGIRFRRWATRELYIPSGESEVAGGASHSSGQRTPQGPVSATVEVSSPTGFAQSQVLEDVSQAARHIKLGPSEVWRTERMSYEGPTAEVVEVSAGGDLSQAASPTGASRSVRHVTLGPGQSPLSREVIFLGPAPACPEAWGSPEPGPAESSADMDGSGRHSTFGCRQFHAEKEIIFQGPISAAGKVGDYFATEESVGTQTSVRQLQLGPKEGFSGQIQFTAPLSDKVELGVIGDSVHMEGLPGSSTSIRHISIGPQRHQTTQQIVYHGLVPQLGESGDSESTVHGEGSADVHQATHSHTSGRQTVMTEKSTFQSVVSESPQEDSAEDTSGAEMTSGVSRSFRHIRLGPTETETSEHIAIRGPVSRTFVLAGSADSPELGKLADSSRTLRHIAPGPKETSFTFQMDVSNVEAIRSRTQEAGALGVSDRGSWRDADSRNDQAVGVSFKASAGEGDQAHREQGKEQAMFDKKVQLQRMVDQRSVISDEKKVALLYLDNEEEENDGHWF

B1: N-terminal FLAG tagged B3GNT2 (enzyme, human, UniProt Q9NY97 1-397, looked up)
chain: MSVGRRRIKLLGILMMANVFIYFIMEVSKSSSQEKNGKGEVIIPKEKFWKISTPPEAYWNREQEKLNRQYNPILSMLTNQTGEAGRLSNISHLNYCEPDLRVTSVVTGFNNLPDRFKDFLLYLRCRNYSLLIDQPDKCAKKPFLLLAIKSLTPHFARRQAIRESWGQESNAGNQTVVRVFLLGQTPPEDNHPDLSDMLKFESEKHQDILMWNYRDTFFNLSLKEVLFLRWVSTSCPDTEFVFKGDDDVFVNTHHILNYLNSLSKTKAKDLFIGDVIHNAGPHRDKKLKYYIPEVVYSGLYPPYAGGGGFLYSGHLALRLYHITDQVHLYPIDDVYTGMCLQKLGLVPEKHKGFRTFDIEEKNKNNICSYVDLMLVHSRKPQEMIDIWSQLQSAHLKC
notes: FLAG-tagged ORF overexpressed in cells; pulled down from lysate with mouse anti-FLAG; also called N-FLAG B3GNT2; N-term FLAG; not shown: N-terminal FLAG tag
SYNM
  co-IP mass spectrometry count: 5
SYNCRIP
  co-IP mass spectrometry count: 2

B2: N-terminal FLAG tagged B3GNT2 (enzyme, human, UniProt Q9NY97 1-397, looked up)
chain: B1 chain
notes: FLAG-tagged ORF overexpressed in A375 cells; pulled down from the lysate with mouse anti-FLAG; also called N-FLAG B3GNT2; N-term FLAG; not shown: N-terminal FLAG tag
ARPC1B
  co-IP/MS count, N-term FLAG: 0
SBSN
  co-IP/MS count, N-term FLAG: 27
